Molecular target: human IL2Rα (human) (UniProt P01589)
Assay: SPR, IL2Rα captured on Protein A chip, IL2 at 100 nM

Sequence of human IL2Rα (human) (P01589 22-213 limits assumed): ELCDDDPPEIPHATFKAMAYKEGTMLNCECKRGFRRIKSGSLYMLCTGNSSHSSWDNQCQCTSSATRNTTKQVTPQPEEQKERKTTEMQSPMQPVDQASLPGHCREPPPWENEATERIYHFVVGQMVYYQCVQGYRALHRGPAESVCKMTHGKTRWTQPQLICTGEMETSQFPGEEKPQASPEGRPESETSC

B1: EP225 (ligand)
chain: APTSSSTKKTQLQLEHLLLDLQMILNGINNYKNPKLTRMLTAKFYMPKKATELKHLQCLEEELKPLEEVLNLAQSKNFHLTARDAVDNMRVIIQELKGSETTFMCEYADETATIVEFLNRWITFSQSIISTLTGSHHHHHH
RU (at 100 nM): 7.4 RU
Relevant binding to WT IL2 (%): 5.21%

Source: patent US20230002466A1
